Measured values as given in article PMC5927464 (2018).

B1: purified recombinant mouse RNase L (enzyme)
chain: METPDYNTPQGGTPSAGSQRTVVEDDSSLIKAVQKGDVVRVQQLLEKGADANACEDTWGWTPLHNAVQAGRVDIVNLLLSHGADPHRRKKNGATPFIIAGIQGDVKLLEILLSCGADVNECDENGFTAFMEAAERGNAEALRFLFAKGANVNLRRQTTKDKRRLKQGGATALMSAAEKGHLEVLRILLNDMKAEVDARDNMGRNALIRTLLNWDCENVEEITSILIQHGADVNVRGERGKTPLIAAVERKHTGLVQMLLSREGINIDARDNEGKTALLIAVDKQLKEIVQLLLEKGADKCDDLVWIARRNHDYHLVKLLLPYVANPDTDPPAGDWSPHSSRWGTALKSLHSMTRPMIGKLKIFIHDDYKIAGTSEGAVYLGIYDNREVAVKVFRENSPRGCKEVSCLRDCGDHSNLVAFYGREDDKGCLYVCVSLCEWTLEEFLRLPREEPVENGEDKFAHSILLSIFEGVQKLHLHGYSHQDLQPQNILIDSKKAVRLADFDQSIRWMGESQMVRRDLEDLGRLVLYVVMKGEIPFETLKTQNDEVLLTMSPDEETKDLIHCLFSPGENVKNCLVDLLGHPFFWTWENRYRTLRNVGNESDIKVRKCKSDLLRLLQHQTLEPPRSFDQWTSKIDKNVMDEMNHFYEKRKKNPYQDTVGDLLKFIRNIGEHINEEKKRGMKEILGDPSRYFQETFPDLVIYIYKKLKETEYRKHFPQPPPRLSVPEAVGPGGIQS
B2: (His)6-L* (purified recombinant L*DA) (natural protein)
chain: MDTQMCALFAQPLTLLPDLNICSWQTVNGSQRTFFVWTWTMTSSGLRTRAINLKQWNGLTYRSYAILSWNPRETPLHLTRVTPSPQVTKGSLLTTSIPINTKIQLICLPAVAMLATPPKTTDNCRTSWAALQMLLLLWHLSSWIKTQRRWRISLTE

Key:
[1] = biological target: T1, mouse RNase L (Mus musculus (mouse)) (UniProt Q05921); assay: SPR competition; settings: 2'-5' phosphodiester linkages; 5'-triphosphate; trimer p3A2'p5'A2'p5'A assumed (oligomer length used in SPR not stated); SPR on Biacore 3000; HBS-P SPR buffer (0.005% surfactant P20), 10 ul/min, 3 min association, 5 min dissociation, 25 C stated for GST-RNase L capture; 1:1 …
T1 sequence: B1 chain

[2] = biological target: B2; assay: SPR; immobilized L*
[3] = biological target: B2; assay: SPR; immobilized L*
[4] = biological target: (His)6-L* (purified recombinant L*DA) (Theiler's murine encephalomyelitis virus, strain DA); assay: SPR; Biacore 3000; (His)6-L* immobilized on Ni-NTA chips, mouse or human RNase L injected; 10 μl/min, 3 min association, 5 min dissociation; 1:1 Langmuir model, global fitting
[5] = biological target: T2, purified recombinant GST-tagged murine RNase L (mouse, UniProt Q05921 1-735); assay: SPR; immobilized mouse RNase L
T2 chain: B1 chain

[6] = biological target: T2, purified recombinant GST-tagged murine …; assay: SPR; immobilized mouse RNase L
[7] = biological target: T2, purified recombinant GST-tagged murine …; assay: SPR; immobilized mouse RNase L

With AAA [2-5A (unlabeled)] the IC50 [1] was 0.0132 µM.

B1 was tested, and the Ka [2] was 760000 M⁻¹, the koff [3] was 0.0027 s⁻¹ and the Kd [4] was 1.3 µM.

B2 showed a Ka [5] of 2e+06 M⁻¹, a Kd [6] of 0.49 µM and a koff [7] of 0.0015 s⁻¹.
